Data published in article PMC3614016.

Key:
[1] = target: PCNA (Homo sapiens) (UniProt P12004); settings: cited from earlier work
[2] = target: mutant human PCNA (surface-exposed cysteines mutated, N107C), unlabeled (human) (UniProt P12004); test: stopped-flow FRET between Cy3-P/T DNA and Cy5-PCNA, trapping experiment with polδ; As a2, with polδ at a ratio of 1:1:1 PCNA:Cy5-PCNA:polδ. The substrates were Cy3-P/T DNA, Cy3-P/T DNA-No Flap and Cy3-P/T DNA-25 bp. The read-out is the overall amplitude of reloading over that of unloading (0.5 = all unlabeled PCNA unloaded, 1.0 = all unlabeled PCNA kept on DNA).

| A (T,Reload)/A (T,Unload) with polδ (Cy3-P/T DNA) [2] | A (T,Reload)/A (T,Unload) with polδ (Cy3-P/T DNA-25 bp) [2] | A (T,Reload)/A (T,Unload) with polδ (Cy3-P/T DNA-No Flap) [2] | Substance | Kd [1] [nM] |
| --- | --- | --- | --- | --- |
| – | – | – | RFC (from UniProt P35251) | 0.2 |
| 1 | 1 | 0.99 | wild-type human DNA polymerase δ (polδ) (complex) | – |
